In series [1] the target is MSI2 (UniProt Q96DH6). In words: Kd (EC50 corrected by depletion factor). The method in brief: (§1)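 Over three biological replicates and two independent experiments, proteins captured on NHS-Sepharose beads carrying 5′-amino-C6 RNA oligos were quantified by label-free LC-MS/MS and normalised to the control. Capture lasted 30 min at 4°C and followed a 1 h pre-incubation at 4°C of HEK293-FT lysate (2.5 mg protein/well) with the same oligos in free form (0 nM to 30 μM). EC50 was taken from a four-parameter log-logistic fit, and Kd was EC50 corrected by a protein-dependent depletion factor.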

Series [2] deals with T1, PINX1 (UniProt Q96BK5).
T1 sequence: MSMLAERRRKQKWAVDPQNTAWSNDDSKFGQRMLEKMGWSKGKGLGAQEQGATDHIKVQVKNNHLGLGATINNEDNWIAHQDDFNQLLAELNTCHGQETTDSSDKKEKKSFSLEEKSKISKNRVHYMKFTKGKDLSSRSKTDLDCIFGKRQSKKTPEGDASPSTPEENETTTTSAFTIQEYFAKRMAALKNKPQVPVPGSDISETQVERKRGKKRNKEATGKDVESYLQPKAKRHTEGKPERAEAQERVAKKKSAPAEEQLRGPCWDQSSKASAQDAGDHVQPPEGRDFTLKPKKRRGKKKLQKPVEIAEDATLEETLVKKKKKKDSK
In words: EC50 of free RNA motif oligo competing protein binding to immobilised probe. Put shortly: as §1

The target in series [3] is T2, SRSF11 (UniProt Q05519).
T2 sequence: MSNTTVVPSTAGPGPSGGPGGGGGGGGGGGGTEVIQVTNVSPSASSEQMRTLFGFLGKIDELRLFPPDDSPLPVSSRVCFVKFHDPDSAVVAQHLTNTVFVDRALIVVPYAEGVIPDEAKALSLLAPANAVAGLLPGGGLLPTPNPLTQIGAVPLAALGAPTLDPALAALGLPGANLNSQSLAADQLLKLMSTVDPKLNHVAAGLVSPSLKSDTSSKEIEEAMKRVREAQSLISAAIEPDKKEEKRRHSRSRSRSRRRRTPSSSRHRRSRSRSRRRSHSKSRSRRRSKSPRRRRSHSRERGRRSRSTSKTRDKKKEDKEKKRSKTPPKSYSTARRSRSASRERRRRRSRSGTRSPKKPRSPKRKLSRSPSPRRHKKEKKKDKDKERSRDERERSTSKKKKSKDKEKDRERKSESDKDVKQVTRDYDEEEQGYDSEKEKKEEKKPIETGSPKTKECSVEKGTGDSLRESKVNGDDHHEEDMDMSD
The series is described as above. The method in brief:
as §1

For series [4], the target named is T3, SYNCRIP (UniProt O60506).
T3 sequence: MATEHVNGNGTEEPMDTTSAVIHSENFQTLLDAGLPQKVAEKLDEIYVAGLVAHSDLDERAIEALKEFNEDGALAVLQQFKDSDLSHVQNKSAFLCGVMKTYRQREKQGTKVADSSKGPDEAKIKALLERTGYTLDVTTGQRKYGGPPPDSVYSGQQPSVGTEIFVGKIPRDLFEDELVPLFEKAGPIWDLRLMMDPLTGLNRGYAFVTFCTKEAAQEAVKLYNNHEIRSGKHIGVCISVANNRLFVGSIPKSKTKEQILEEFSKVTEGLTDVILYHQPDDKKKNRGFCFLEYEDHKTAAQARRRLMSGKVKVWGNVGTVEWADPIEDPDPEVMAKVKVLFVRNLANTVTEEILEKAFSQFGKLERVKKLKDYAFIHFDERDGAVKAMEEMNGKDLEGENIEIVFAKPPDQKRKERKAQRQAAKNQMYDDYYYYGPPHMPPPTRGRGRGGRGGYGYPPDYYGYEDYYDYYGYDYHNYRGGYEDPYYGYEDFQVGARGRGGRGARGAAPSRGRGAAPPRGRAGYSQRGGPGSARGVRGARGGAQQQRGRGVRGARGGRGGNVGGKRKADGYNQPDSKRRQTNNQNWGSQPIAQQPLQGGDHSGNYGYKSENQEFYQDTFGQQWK
The description is as above. Put shortly:
as §1

Series [5] deals with MRPL39 (UniProt Q9NYK5). Described as above. The method in brief:
as §1

Series [6] deals with MRPL43 (UniProt Q8N983). Described as above. Put shortly:
as §1

Series [7] concerns the target RPS3A (UniProt P61247). The series is described as above. The method in brief:
as §1

The target of series [8] is T4, LSM8 (UniProt O95777).
T4 sequence: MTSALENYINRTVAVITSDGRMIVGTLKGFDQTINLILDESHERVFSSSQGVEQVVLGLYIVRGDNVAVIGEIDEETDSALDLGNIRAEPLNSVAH
Described as above. The method in brief:
as §1

Series [9] deals with MRPS34 (UniProt P82930). Described as above. Put shortly:
as §1

MSI2, sequence (Q96DH6 whole entry): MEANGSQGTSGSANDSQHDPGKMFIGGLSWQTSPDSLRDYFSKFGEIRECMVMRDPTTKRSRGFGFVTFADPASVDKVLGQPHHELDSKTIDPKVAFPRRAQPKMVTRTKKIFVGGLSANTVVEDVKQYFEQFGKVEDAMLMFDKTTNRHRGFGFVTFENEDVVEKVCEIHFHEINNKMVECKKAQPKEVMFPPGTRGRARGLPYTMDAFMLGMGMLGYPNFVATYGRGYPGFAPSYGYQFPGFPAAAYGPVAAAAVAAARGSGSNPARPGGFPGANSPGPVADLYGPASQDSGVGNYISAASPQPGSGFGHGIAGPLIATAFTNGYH

The term Kd denotes the equilibrium constant for the complex coming apart. The term EC50 denotes the concentration at which the effect is half-maximal. Higher therefore signals a less potent agent. On to AAUAAA, for which, in [1], the Kd worked out at 104 nM. The figures for the EC50 in series [2], in series [3] and in series [4] were 2130 nM, 1110 nM and 1850 nM, respectively.

For the sequence CUGUCCU, the EC50 in [5] came out at 248 nM; in series [6], 104 nM; in [7], 106 nM.

Turning to UAUUUAU, the Kd in series [1] came to 475 nM. For the same sequence, the EC50 in [8] turned out to be 9580 nM; in series [9] it was 59.7 nM.

(Values after the supplement of paper PMC6379048.)
